These results are taken from CN116574187A (ZHEJIANG SHIMAI PHARMACEUTICAL CO LTD, dated 2023).

Experiment [1] deals with 细胞表面表达的GUCY2C (HT55, SW948, LS174T-GUCY2C, HT1080-GUCY2C细胞) (human, UniProt P25092 24-1073). Put plainly: cell-based or functional assay.
Experiment [2] deals with T1, 人GUCY2C蛋白(His标签) (human, UniProt P25092 24-430).
T1 construct: Bought from ACRO; also called 重组人GUCY2C; human GUCY2C protein (His tag); not shown: His tag
Put plainly: ELISA, coated human GUCY2C protein, anti-Fc HRP detection. In general terms: ELISA stands for enzyme-linked immunosorbent assay.

The target in experiment [3] is CD3 on TCR/CD3效应细胞 (Jurkat-NFAT-CD3) (human). Put plainly: cell-based or functional assay.
CD3 on TCR/CD3效应细胞 (Jurkat-NFAT-CD3) (human), sequence (chain, as listed by the source): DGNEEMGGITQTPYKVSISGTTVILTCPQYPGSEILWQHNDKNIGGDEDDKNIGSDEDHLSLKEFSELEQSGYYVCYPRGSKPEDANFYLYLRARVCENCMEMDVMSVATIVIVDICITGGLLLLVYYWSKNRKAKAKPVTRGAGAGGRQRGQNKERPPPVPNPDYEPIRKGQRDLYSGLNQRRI
A further experiment addresses T2, 人CD3蛋白 (human).
T2 construct: Bought from ACRO; also called 重组人CD3; human CD3 protein (Fc标签)
Put plainly: ELISA, coated human CD3 protein.

For experiment [4], the target named is T1, 人GUCY2C蛋白(His标签). Put plainly: ELISA, coated human GUCY2C protein.

细胞表面表达的GUCY2C (HT55, SW948, LS174T-GUCY2C, HT1080-GUCY2C细胞), sequence (P25092 24-1073): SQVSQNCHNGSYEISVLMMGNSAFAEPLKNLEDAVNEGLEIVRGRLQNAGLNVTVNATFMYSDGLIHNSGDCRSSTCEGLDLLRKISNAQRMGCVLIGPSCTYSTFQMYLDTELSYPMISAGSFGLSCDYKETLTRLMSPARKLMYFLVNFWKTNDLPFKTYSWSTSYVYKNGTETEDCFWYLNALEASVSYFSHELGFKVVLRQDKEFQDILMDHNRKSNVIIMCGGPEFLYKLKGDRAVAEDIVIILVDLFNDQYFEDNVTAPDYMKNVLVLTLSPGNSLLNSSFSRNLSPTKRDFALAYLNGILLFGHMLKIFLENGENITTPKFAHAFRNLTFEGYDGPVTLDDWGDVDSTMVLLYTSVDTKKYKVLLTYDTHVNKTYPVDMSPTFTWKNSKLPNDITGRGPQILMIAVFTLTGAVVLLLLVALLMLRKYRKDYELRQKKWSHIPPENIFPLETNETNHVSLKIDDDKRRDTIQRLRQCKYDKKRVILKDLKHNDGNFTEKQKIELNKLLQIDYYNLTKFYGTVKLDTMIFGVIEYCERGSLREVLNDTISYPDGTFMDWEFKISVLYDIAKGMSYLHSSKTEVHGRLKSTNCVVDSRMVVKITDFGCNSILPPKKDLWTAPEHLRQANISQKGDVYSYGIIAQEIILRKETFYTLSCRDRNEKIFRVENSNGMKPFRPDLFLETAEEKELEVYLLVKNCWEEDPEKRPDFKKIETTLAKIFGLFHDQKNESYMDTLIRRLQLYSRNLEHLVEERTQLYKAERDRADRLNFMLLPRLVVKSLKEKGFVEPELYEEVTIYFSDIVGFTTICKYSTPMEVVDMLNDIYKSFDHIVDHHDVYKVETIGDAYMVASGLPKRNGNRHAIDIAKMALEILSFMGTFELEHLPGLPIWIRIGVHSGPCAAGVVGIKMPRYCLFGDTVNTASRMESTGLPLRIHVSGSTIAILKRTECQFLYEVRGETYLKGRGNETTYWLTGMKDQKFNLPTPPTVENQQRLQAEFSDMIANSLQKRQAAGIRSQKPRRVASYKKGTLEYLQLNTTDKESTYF
T1 sequence (P25092 24-430 limits assumed): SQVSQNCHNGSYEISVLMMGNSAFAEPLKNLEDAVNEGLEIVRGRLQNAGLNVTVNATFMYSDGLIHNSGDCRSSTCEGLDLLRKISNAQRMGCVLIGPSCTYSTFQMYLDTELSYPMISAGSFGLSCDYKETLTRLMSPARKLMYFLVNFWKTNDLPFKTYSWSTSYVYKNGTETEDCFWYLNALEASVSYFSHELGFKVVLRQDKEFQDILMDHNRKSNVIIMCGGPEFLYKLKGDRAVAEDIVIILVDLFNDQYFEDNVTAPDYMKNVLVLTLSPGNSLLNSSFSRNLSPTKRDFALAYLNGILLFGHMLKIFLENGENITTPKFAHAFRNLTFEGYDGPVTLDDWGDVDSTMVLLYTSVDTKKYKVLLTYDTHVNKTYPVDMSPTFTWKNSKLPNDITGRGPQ
T2 sequence (P07766 23-126): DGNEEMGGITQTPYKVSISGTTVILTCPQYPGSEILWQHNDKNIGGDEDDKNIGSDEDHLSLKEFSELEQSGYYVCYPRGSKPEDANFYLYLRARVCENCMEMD

B1: GCC-56C9M mAb (antibody, human IgG1, kappa)
heavy: not shown
light: QIVLTQSPAIMSVSPGEKVTITCSASSSVSYIHWFQQRPGTSPKLWIYSTSNLASGVPARFSGSGSGTSYSLTISRMEAEDAATYYCQQRSSYPLTFGTGTKLELKRTVAAPSVFIFPPSDEQLKSGTASVVCLLNNFYPREAKVQWKVDNALQSGNSQESVTEQDSKDSTYSLSSTLTLSKADYEKHKVYACEVTHQGLSSPVTKSFNRGEC
notes: Chimeric full IgG1: Fab of mouse clone 56C9 fused to human IgG1 Fc; expressed in CHO-S cells; also called 抗GUCY2C mAb; 抗GUCY2C单克隆抗体
One may read the EC50 as the midpoint of the concentration-response curve. Lower therefore signals an effect from little substance. In the case of B1, the “ADCC reporter: activation of Jurkat-CD16a cells in the presence of HT1080-GUCY2C cells (luciferase), EC50” value in experiment [1] was roughly 0.0247 µg/mL. In the experiment with 人GUCY2C蛋白(His标签) [2], this molecule returned a half-maximal effective concentration (EC50) of 0.193 µg/mL.

B2: GCC-56C9H4-M6MV1-1 (bispecific antibody, human IgG1, kappa)
light: EVQLVESGGGLVKPGGSLRLSCAASGFTFSSYAMTWVRQTPEKRLEWVATMSSGGGYTYYLDSVKGRFTISRDNAKNTLYLQMSSLRADDTAVYYCARHNYGYNYAMDYWGQGTLVTVSSGGGGSGGGGSGGGGSEIVLTQSPAIQSVSPGEKVTITCSASSSVSYIHWYQQRPGKAPKLLIYSTSNLASGVPARFSGSGSGTDFSLTISRLQAEDAATYYCQQRSSYPLTFGQGTKLEIKGSGGGGSGGGGSEIVVTQSPATLSVSPGERATLSCRSSTGAVTTSNYANWVQQKPGQAPRGLIGGANKRAPGVPARFSGSLSGDEATLTISSLQSEDFAVYYCALWYSNLWVFGQGTKLEIKRTVAAPSVFIFPPSDEQLKSGTASVVCLLNNFYPREAKVQWKVDNALQSGNSQESVTEQDSKDSTYSLSSTLTLSKADYEKHKVYACEVTHQGLSSPVTKSFNRGECGGSGSCPPCPAPEAAGAPSVFLFPPKPKDTLMISRTPEVTCVVVDVSHEDPEVKFNWYVDGVEVHNAKTKPREEQYNSTYRVVSVLTVLHQDWLNGKEYKCKVSNKALGAPIEKTISKAKGQPREPQVYTLPPSRDELTKNQVSLLCLVKGFYPSDIAVEWESNGQPENNYKTTPPVLDSDGSFFLHSKLTVDKSRWQQGNVFSCSVMHEALHNHYTQKSLSLSPG
heavy: EVQLVESGGGLVQPGGSLRLSCAASGFTFNTYAMNWVRQAPGKGLEWVARIRSKYNNYATYYADSVKGRFTISRDDSKNTLYLQMNSLRAEDTAVYYCARHGNFGSSYVSYFAYWGQGTTVTVSSASTKGPSVFPLAPSSKSTSGGTAALGCLVKDYFPEPVTVSWNSGALTSGVHTFPAVLQSSGLYSLSSVVTVPSSSLGTQTYICNVNHKPSNTKVDKKVEPKSCDKTHTCPPCPAPEAAGAPSVFLFPPKPKDTLMISRTPEVTCVVVDVSHEDPEVKFNWYVDGVEVHNAKTKPREEQYNSTYRVVSVLTVLHQDWLNGKEYKCKVSNKALGAPIEKTISKAKGQPREPQVYTLPPSRDELTKNQVSLLCLVKGFYPSDIAVEWESNGQPENNYKTTPPVLDSDGSFFLHSKLTVDKSRWQQGNVFSCSVMHEALHNHYTQKSLSLSPG
notes: Heterodimer of a 'light chain' (humanised anti-GUCY2C scFv - linker - anti-CD3 hSP34 VL-CL - mFc7.2) and a 'heavy chain' (anti-CD3 VH-CH1 - mFc7.2); expressed in 293FS or CHO-S cells; also called GUCY2C×CD3 IBiTE
As for B2, in experiment [3], the “T cell activation: Jurkat-NFAT-CD3 luciferase reporter with HT55 target cells, EC50” value was roughly 0.374 µg/mL; the “T cell activation: Jurkat-NFAT-CD3 luciferase reporter with LS174T-GUCY2C target cells, EC50” value is roughly 0.335 µg/mL; the “T cell activation: Jurkat-NFAT-CD3 luciferase reporter with SW948 target cells, EC50” value was roughly 0.519 µg/mL. For the same molecule, in experiment [1], the “T cell activation: Jurkat-NFAT-CD3 luciferase reporter with HT55 target cells, EC50” value is roughly 0.374 µg/mL; the “T cell activation: Jurkat-NFAT-CD3 luciferase reporter with LS174T-GUCY2C target cells, EC50” value was roughly 0.335 µg/mL; the “T cell activation: Jurkat-NFAT-CD3 luciferase reporter with SW948 target cells, EC50” value was roughly 0.519 µg/mL; the “killing of HT55 cells with human PBMC (CCK8), EC50” value is 0.0152 µg/mL. Further, in experiment [1], the “killing of LS174T-GUCY2C cells with human PBMC (CCK8), EC50” value was found to be 0.00274 µg/mL and the “killing of SW948 cells with human PBMC (CCK8), EC50” value was 0.012 µg/mL. The concentration for a half-maximal effect (EC50) with 人CD3蛋白 stood at 0.116 µg/mL. The molecule also yielded a half-maximal effective concentration (EC50) with 人GUCY2C蛋白(His标签) [4] of 0.14 µg/mL.
